Results published in patent US20210284724A1 (I MAB BIOPHARMA US, published 2021).

T1: human CXCL13 (human, UniProt O43927 23-109)
T1 construct: also called huCXCL13; rhCXCL13
T1 sequence (looked up): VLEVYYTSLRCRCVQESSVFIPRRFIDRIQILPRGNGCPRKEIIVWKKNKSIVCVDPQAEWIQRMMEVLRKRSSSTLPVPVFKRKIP


Key:
human CXCL13 [1] = target: T1, human CXCL13; assay: cell-based blocking assay, CXCL13 to CXCR5 cells
Method in brief: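 To obtain IC50, a titration of humanized Fabs was tested against human CXCL13 binding to CHO-K1 cells expressing CXCR5. The cells (5×10⁴/well) were plated overnight at 37° C, fixed with 2% PFA and blocked with 1% BSA in PBST, then given 100 μl of Fab mixed with an equal volume of 0.3 μg/ml CXCL13 after a 30 min pre-incubation at room temperature. After 30 min on the cells and three PBST washes, bound CXCL13 was captured with 3 μg/ml human anti-CXCL13 antibody, detected with anti-human Fc-HRP and read at 450 nm.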

human CXCL13 [2] = target: T1, human CXCL13; assay: ELISA binding, Fab
human CXCL13 [3] = target: T1, human CXCL13; assay: SPR Biacore, off-rate ranking of Fabs
human CXCL13 [4] = target: T1, human CXCL13; assay: SPR Biacore 8K, Fab over immobilised CXCL13
Method: Among all humanized Fab samples, 71F4A3-VH2VL1, 71F4A3-VH1VL1 (Hz71F4), 71F4A3-VH1VL2, 71F4A3-VH3VL1, 411A11E9-VH1VL4, 411A11E9-VH3VL4, 411A11E9-VH2VL4, 411A11E9-VH3VL2, 411A11E9-VH1VL2, 21H12D9-VH1VL1, 21H12D9-VH2VL2, 21H12D9-VH3VL3, 21H12D9-VH1VL2, 64C10G1-VH1VL3, 64C10G1-VH1VL4, 64C10G1-VH1VL1, 64C10G1-VH1VL2 were selected to test affinity by Biacore 8K. 10 mM HEPES, 150 mM NaCl, 3 mM EDTA, 0.05% Tween-20, pH 7.4 served as running buffer and 10 mM glycine-HCl, pH2.0 served as regeneration buffer. CXCL13 protein were immobilized on Sensor Chip CM5 using amine coupling method (immobilization level ˜250RU). The serial concentrations of Fab (0-20 nM) were injected over immobilized CXCL13 at the flow rate of 30 μl/min. The dissociation phases were 600s.

human CXCL13 [5] = target: T1, human CXCL13; assay: cell-based blocking ELISA, CXCL13 to CHO-K1-CXCR5
Method: This example tested the blocking of the anti-CXCL13 chimeric antibodies to CHO-K1-CXCR5 cells. Briefly, 5×10⁴ CHO-K1-CXCR5 cells were plated in 96-well plate with 100 μl of culture medium and incubated at 37° C. overnight. Cells were fixed with 100 μl of 2% PFA at RT for 1 hr after washing with PBS for 1 time. Samples were blocked with 1% BSA in PBST for 1 hr at RT. Antibodies were serial diluted from 50 μg/ml by 3-fold with 1% BSA/PBST and pre-incubated with equal volume of 0.3 μg/ml human CXCL13 for 30 min at RT. 100 μl of antibody-antigen complex was transferred into each cell wells for 30 min at RT. Samples were washed with 1×PBST for 3 times and 100 μl of 3 μg/ml of human Mab5261 antibody was added into each well to capture human CXCL13 and anti-human Fc-HRP was used to indirectly detect human CXCL13 when it bound to CHO-K1-CXCR5 cells.
Then read at 450 nm. […] Among all clones, 415A3D1, 64C10G1, 1H3A11, 414D10F5, 411A11E9, 21H12D9, 71F4A3, 329F2E1 show completely blocking activity and 408E3F3, 19H7E10, 339A6E7 appeared to be partial blockers.

human CXCL13 [6] = target: T1, human CXCL13; assay: SPR Biacore 8K, Fab over immobilised CXCL13; remark: listed apart in the source
Method: HuCXCL13 binding affinity by Surface Plasmon Resonance. 411A11E9, 415A3D1, 64C10G1, 21H12D9, 329F2E1, 71F4A3 were selected to produce Fab and tested binding affinity. The binding of the antibodies to huCXCL13 was examined by Biacore 8K. 10 mM HEPES, 150 mM NaCl, 3 mM EDTA, 0.05% Tween-20, pH 7.4 served as running buffer and 10 mM glycine-HCl, pH2.0 served as regeneration buffer. CXCL13 protein was immobilized on Sensor Chip CM5 using amine coupling method (immobilization level ˜30RU). The serial concentrations of Fab (0-16 nM) were injected over immobilized CXCL13 at the flow rate of 30 μl/min. The dissociation phases were 600s.

| Binder | IC50 (human CXCL13 [1]) | EC50 (human CXCL13 [2]) | Kd (human CXCL13 [3]) | koff (human CXCL13 [3]) | kon (human CXCL13 [3]) | Kd (human CXCL13 [4]) | koff (human CXCL13 [4]) | kon (human CXCL13 [4]) | IC50 (human CXCL13 [5]) | Kd (human CXCL13 [6]) | koff (human CXCL13 [6]) | kon (human CXCL13 [6]) |
| --- | --- | --- | --- | --- | --- | --- | --- | --- | --- | --- | --- | --- |
| 71F4A3-VH1VL1 (Hz71F4) Fab (Fab, V domains shown, Humanized Fab, human gamma 1 and kappa constant domains) VH: EVQLVESGGGLVQPGGSLRLSCAASGIDFSRYWMSWVRQAPGKGLEWVAEINPDSSTINYAPSLKDRFTISRDNAKNSLYLQMNSLRAEDTAVYYCARQDDYEYYAMDYWGQGTTVTVSS VL: DIQMTQSPSSLSASVGDRVTITCKASQDVNTGVAWYQQKPGKAPKLLIYSASYRYTGVPSRFSGSGSGTDFTFTISSLQPEDIATYYCQQYYSTPLTFGGGTKLEIK | 11.2 nM | 0.974 nM | 0.426 nM | 0.00136 s⁻¹ | 3.2e+06 M⁻¹ s⁻¹ | 0.619 nM | 0.00125 s⁻¹ | 2.02e+06 M⁻¹ s⁻¹ | – | – | – | – |
| 71F4A3-VH1VL2 (Fab, V domains shown, Humanized Fab, human gamma 1 and kappa constant domains) VH: EVQLVESGGGLVQPGGSLRLSCAASGIDFSRYWMSWVRQAPGKGLEWVAEINPDSSTINYAPSLKDRFTISRDNAKNSLYLQMNSLRAEDTAVYYCARQDDYEYYAMDYWGQGTTVTVSS VL: DIQMTQSPSSLSASVGDRVTITCKASQDVNTGVAWYQQKPGKAPKLLIYSASYRYTGVPSRFSGSGSGTDFTFTISSVQPEDIATYYCQQYYSTPLTFGGGTKLEIK | 10.7 nM | 1.18 nM | 0.516 nM | 0.00147 s⁻¹ | 2.85e+06 M⁻¹ s⁻¹ | 0.628 nM | 0.00116 s⁻¹ | 1.84e+06 M⁻¹ s⁻¹ | – | – | – | – |
| 19H7E10 chimeric human IgG1 antibody (antibody, V domains shown, Chimeric human IgG1) VH: EVQLQQSGPELVKPGASVKISCQASGYAFSDYYMNWVKQSHGKRLEWIGDINPNNDGTTYNQKFKDKATLTVDKSSSTAYMDLRSLTSEDSAVYYCARLSWSFFAMDYWGQGTSVTVSS VL: DIVMTQSHKFMSTSVGDRVSITCKASQDVSSGVAWYQQKPGQSPKVLIYSASHRHTGVPDRFTASGSGTDFTFTISSVQAEDLAVYYCQQYYNTPWTFGGGTKLEIK | – | – | – | – | – | – | – | – | 15.1 µg/mL | – | – | – |
| 21H12D9 chimeric Fab (Fab, V domains shown, Fab; also called 21VH12D9-Chimeric) VH: EVQLQQSGPVLVRPGASVKMSCKASGYTFTDYYMNWVKQSHGKSLEWIGVINPNNGGTTYKEKFKGKATLTVDKSSGTAYMELNSLTSEDSAVYYCARDDYDAGYWGQGTTLTVSS VL: DIVMTQFQKFMSTTVGDRVSITCKASQNVDTAVAWYQHKPGQSPKLLIYSASHRYTGVPDRFTGSGSGTDFTLTISNVQSEDLADYFCQQYTDFPLTFGAGTKLELK | – | – | 1.18 nM | 0.00139 s⁻¹ | 1.17e+06 M⁻¹ s⁻¹ | 1.42 nM | 0.00258 s⁻¹ | 1.82e+06 M⁻¹ s⁻¹ | – | 0.341 nM | 0.000731 s⁻¹ | 2.14e+06 M⁻¹ s⁻¹ |
| 415A3D1 chimeric Fab (Fab, V domains shown, Fab; label read as clone 415A3D1F4) VH: EVKLLESGGGLVQAGGSMRLSCGAFGFTVTDFYINWIRQPAGKAPEWLGFMRNKANGYTTEYNPSVKGRFTISRNNTQNMPYLQMNTLRTEDTAIYYCARSRYNADDYYVGVMDVWGQGASVTVSS VL: DIQMTQFPASLSASLGETVSIECLASEDIYNNLAWYQQKPGKSPQLLIYYTNSLQDGVPSRFSGTGSGTQYSLKINSLESEDAATYFCLQDSEYPWTFGGGTKLKLK | – | – | – | – | – | – | – | – | – | 1.2 nM | 0.00306 s⁻¹ | 2.56e+06 M⁻¹ s⁻¹ |
| 408E3F3 chimeric human IgG1 antibody (antibody, V domains shown, Chimeric human IgG1) VH: HVTLRESGPGVLQPSKTLSLTCSFSGFSLSTSAMVVSWIRQSSGMSLEWLAAIDWEGDKYYNPSLESRLTVSRDISDTQVFLRITSVDVADTATYYCAVMSSADSHSVLDAWGQGVSVTVSS VL: DIKMTQSPSFLSASVGDRVTINCKASQNIHNYLNWYQQKFGEAPRLLIYNTNNLQTGIPSRFSGSGSGTDFTLTISSLQPEDVATYFCLQHSSSLTFGSGTKLEIN | – | – | – | – | – | – | – | – | 7.64 µg/mL | – | – | – |
| 411A11E9 chimeric Fab (Fab, V domains shown, Fab) VH: EVQLVESGGGLVQPGGSLKLSCVVSGFTFSDYYMAWVRQTPTKGLEWVASINYDGGDTYYRDSVKGRFTVSRNNAKSSLFLQMDSLRSEDTATYYCKTEEDYDGSYVMDAWGQGASVIVSS VL: DIQMTQSPSFLSASVGDRVTISCKASQNINKELTWYQQKLGKAPKRLIYNTNILQTGIPSRFSGSGSNTDYTLTISSLQPEDFATYFCLQQSSLYTFGAGTKLELK | – | – | 0.708 nM | 0.00287 s⁻¹ | 4.05e+06 M⁻¹ s⁻¹ | 0.74 nM | 0.00156 s⁻¹ | 2.11e+06 M⁻¹ s⁻¹ | – | 0.158 nM | 0.000326 s⁻¹ | 2.06e+06 M⁻¹ s⁻¹ |
| 64C10G1-VH1VL3 (Fab, V domains shown, Humanized Fab, human gamma 1 and kappa constant domains; also called 64C10G1-VH1VL3(Fab)) VH: EVQLVESGGGLVQPGGSLRLSCAASGFTFSSYAMSWVRQAPGKGLEWVATISDGGSDAYYPDNVKGRFTISRDNAKNSLYLQMNSLRAEDTAVYYCARDYYGSGYEDSPMDYWGQGTLVTVSS VL: DIQMTQSPSSLSASVGDRVTITCKASQDINKYIAWYQQKPGKAPKLLIHYTSTLQPGIPSRFSGSGSGTDFTFTISSLQPEDFATYYCLQYDNLYTFGGGTKLEIK | 7.69 nM | 1.07 nM | 2.98 nM | 0.00543 s⁻¹ | 1.82e+06 M⁻¹ s⁻¹ | 2.98 nM | 0.00543 s⁻¹ | 1.82e+06 M⁻¹ s⁻¹ | – | – | – | – |
| 64C10G1-VH1VL4 (Fab, V domains shown, Humanized Fab, human gamma 1 and kappa constant domains; also called 64C10G1-VH1VL4(Fab)) VH: EVQLVESGGGLVQPGGSLRLSCAASGFTFSSYAMSWVRQAPGKGLEWVATISDGGSDAYYPDNVKGRFTISRDNAKNSLYLQMNSLRAEDTAVYYCARDYYGSGYEDSPMDYWGQGTLVTVSS VL: DIQMTQSPSSLSASVGDRVTITCKASQDINKYIAWYQQKPGKAPKLLIHYTSTLQPGIPSRFSGSGSGTDYTFTISSLQPEDFATYYCLQYDNLYTFGGGTKLEIK | 6.88 nM | 0.784 nM | 3.68 nM | 0.00713 s⁻¹ | 1.94e+06 M⁻¹ s⁻¹ | 3.68 nM | 0.00713 s⁻¹ | 1.94e+06 M⁻¹ s⁻¹ | – | – | – | – |
| 64C10G1-VH1VL1 (Fab, V domains shown, Humanized Fab, human gamma 1 and kappa constant domains; also called 64C10G1-VH1VL1(Fab)) VH: EVQLVESGGGLVQPGGSLRLSCAASGFTFSSYAMSWVRQAPGKGLEWVATISDGGSDAYYPDNVKGRFTISRDNAKNSLYLQMNSLRAEDTAVYYCARDYYGSGYEDSPMDYWGQGTLVTVSS VL: DIQMTQSPSSLSASVGDRVTITCKASQDINKYIAWYQQKPGKAPKLLIYYTSTLQPGVPSRFSGSGSGTDFTFTISSLQPEDIATYYCLQYDNLYTFGGGTKLEIK | 7.79 nM | 1.29 nM | 5.89 nM | 0.0255 s⁻¹ | 4.33e+06 M⁻¹ s⁻¹ | 5.89 nM | 0.0255 s⁻¹ | 4.33e+06 M⁻¹ s⁻¹ | – | – | – | – |
| 64C10G1-VH1VL2 (Fab, V domains shown, Humanized Fab, human gamma 1 and kappa constant domains; also called 64C10G1-VH1VL2(Fab)) VH: EVQLVESGGGLVQPGGSLRLSCAASGFTFSSYAMSWVRQAPGKGLEWVATISDGGSDAYYPDNVKGRFTISRDNAKNSLYLQMNSLRAEDTAVYYCARDYYGSGYEDSPMDYWGQGTLVTVSS VL: DIQMTQSPSSLSASVGDRVTITCKASQDINKYIAWYQQKPGKAPKLLIHYTSTLQPGVPSRFSGSGSGTDFTFTISSLQPEDFATYYCLQYDNLYTFGGGTKLEIK | 7.02 nM | 1.23 nM | 1.92 nM | 0.00515 s⁻¹ | 2.69e+06 M⁻¹ s⁻¹ | 1.92 nM | 0.00515 s⁻¹ | 2.69e+06 M⁻¹ s⁻¹ | – | – | – | – |
